The conditions of series [1]: read-out: Km value for ATP; cited from earlier work.
For series [2] the following is noted: read-out: Km value for UMP; cited from earlier work.
Series [3] is described as follows: pyruvate kinase-lactate dehydrogenase coupled assay, IP as variable substrate. The class given is biochemical. The following applies: 25° C.; for kinase activity (rate of IP turnover): relevant concentrations of IP and enzyme. The method, then:
All specific activity and kinetic measurements were performed using the pyruvate kinase-lactate dehydrogenase coupled assay with reference to a previously established protocol (Lindsley, 2001, Methods Mol. Biol. 95:57-64.). The reaction includes the following components in a 200 ul volume: 7 U pyruvate kinase, 10 U lactate dehydrogenase, 2 mM phosphoenolpyruvate, 0.16 mM NADH, 50 mM TRIS HCl pH 8.0, 100 mM KCl, 8 mM MgCl2, 4 mM ATP, and variable concentrations of IP (purchased from Larodan Fine Chemicals). The reaction was initiated by the addition of IPK (0.15 ug) and was followed by observing the depletion of NADH at 340 nm over time, expressed as Δ(AU340)/Δt, which was converted to Δ(ADP)/Δt. These values were then plotted against substrate concentration in GraphPad Prism® (Version 5.01 for Windows) to compute the kinetic parameters kcat and Km using the “nonlinear regression enzyme kinetic analysis” option.
From the results discussed above, it is evident that His60 from IPK plays an important role in both substrate and product binding. This is accomplished through a hydrogen bonding interaction between the Nε2 atom of His60 and a non-bridging O atom from the terminal phosphate group on either the substrate (IP) or the product (IPP). From all crystal structure data, it is apparent that the Nε2 group of His60 (and not the Nδ1 group) is relevant for binding and may therefore be reasonably assumed by one skilled in the art to be relevant for IPK-mediated catalysis. To confirm this hypothesis, His60 was mutated to Ala, Asn, and Gln. The Asn and Gln mutations were made based on the rationale that their side chains contain N atoms that are isosteric with the Nδ1 and Nε2 groups on His, respectively.

A short description of series [4]: pyruvate kinase-lactate dehydrogenase coupled assay, Km for ATP. The format is biochemical. The following applies: 25° C. The method, then:
All specific activity and kinetic measurements were performed using the pyruvate kinase-lactate dehydrogenase coupled assay with reference to a previously established protocol (Lindsley, 2001, Methods Mol. Biol. 95:57-64.). […] The reaction was initiated by the addition of IPK (0.15 ug) and was followed by observing the depletion of NADH at 340 nm over time, expressed as Δ(AU340)/Δt, which was converted to Δ(ADP)/Δt. These values were then plotted against substrate concentration in GraphPad Prism® (Version 5.01 for Windows) to compute the kinetic parameters kcat and Km using the “nonlinear regression enzyme kinetic analysis” option.

Series [5] is described as follows: coupled IPK / 5-epi-aristolochene synthase (TEAS) vial assay, GC-MS, FP to FPP conversion. The class given is biochemical. The note with it: 10 μM IPK, 150 μM FP, ATP, Mg, pH 8.0, 20 minutes at 55° C., 5-epi-aristolochene quantified by GC-MS. The method, then:
FIG. 10: Assays of IPK and mutants. The single mutants of IPK, I86A and I146A, and the double mutant I86A/I146A, were tested with the C15-substrate farnesyl monophosphate (FP) using a coupled assay with a terpene cyclase (TEAS). In the first step of the reaction, IPK was incubated with magnesium, ATP, and FP at pH 8.0 for 20 minutes at 55° C. (assuming sufficient time for conversion of FP to FPP). In the second step of the reaction, a small sample of the first reaction was added to a glass vial containing magnesium and a sesquiterpene cyclase known as tobacco 5-epi-aristolochene synthase (TEAS), and this reaction was incubated overnight at 25° C. Assuming complete conversion of FPP to 5-epi-aristolochene, the reaction was extracted with ethyl acetate and the amount of 5-epi-aristolochene was quantified by GC-MS analysis.
FIGS. 11A-11B: Farnesyl phosphate (FP) phosphorylation by IPK chain length mutants. FIG. 11A: FIG. 11A depicts the coupled IPK-sesquiterpene synthase reaction used to test for FP transphosphorylation. FIG. 11B: FIG. 11B depicts comparative bar graph showing several IPK mutants qualitatively tested for their ability to convert FP to FPP, expressed as a percentage of maximal production of 5-epi-aristolocene produced from IPK-generated FPP using wild-type IPK and identical concentrations of wild-type tobacco 5-epi-aristolochene synthase incubated for equivalent lengths of time.
IPK mutants (at a final concentration of 10 μM) were incubated in a 50 μl reaction with 150 μM farnesyl monophosphate (FP), 7 mM MgCl2, 4 mM ATP, and 50 mM TRIS.HCl pH 8.0 for 20 minutes at 55° C. 10 μl of this reaction was then added to a 500 μl reaction containing 45 ug of the terpene cyclase 5-epi-aristolochene synthase (TEAS) and 10 mM MgCl2 in a 3-component buffer system (25 mM MES, 50 mM TRIS.HCl, 25 mM CAPS) at pH 7.0. A method known as the “vial assay” (O'Maille et al., 2004, Anal. Biochem. 335:210-217) was employed by overlaying this aqueous layer with 500 μl of ethyl acetate, incubating overnight at 25° C., and vortexing to extract the terpene product into the organic layer prior to quantitative GC-MS analysis. Both negative and positive control reactions were conducted as follows. For the negative control, no IPK was added to the first reaction. For the positive control, […] of FPP (equivalent to the amount that would be present assuming complete FP to FPP turnover) was added to the TEAS reaction.
Similar studies were conducted using FPP modeled into the active site of IPK. The reaction of IPK on FP to form FPP is depicted in FIG. 10. The I146A I86A single-residue mutations, and the […] double mutation were tested with the C15-substrate farnesyl monophosphate (FP) using a coupled assay with a terpene cyclase (TEAS). In the first step of the reaction, IPK was incubated with magnesium, ATP, and FP at pH 8.0 for 20 minutes at 55° C., which was judged as sufficient time for conversion of FP to FPP. In the second step of the reaction, a small sample of the first reaction was added to a glass vial containing magnesium and a sesquiterpene cyclase known as tobacco 5-epi-aristolochene synthase (TEAS), and this reaction was incubated overnight at 25° C. Assuming complete conversion of FPP to 5-epi-aristolochene, the reaction was extracted with ethyl acetate and the amount of 5-epi-aristolochene was quantitated by GC-MS analysis.

The mark [6] stands for this setting: measured in one instance (other than Table 4).

Data on twelve molecules can be found in patent publication US10273464B2, “Methods and isolated protein compositions for isoprenoid diphosphate synthesis” (The Salk Institute for Biological Studies, priority 2009, dated 2019).

Residue numbers refer to the chain shown, from its start. Names may count otherwise. “Also recorded” adds a separate entry of the source. Read-outs that look alike come from different tables or passages of the source.

B1: UMPK from Sulfolobus solfataricus: uridine monophosphate kinase from Sulfolobus solfataricus, literature comparison (Jensen et al., 2007) (protein, UniProt Q97ZE2 1-227, looked up)
Uridylate kinase: MMNIILKISGKFFDEDNVDNLIVLRQSIKELADNGFRVGIVTGGGSTARRYIKLAREIGIGEAYLDLLGIWASRLNAYLVMFSLQDLAYMHVPQSLEEFIQDWSHGKVVVTGGFQPGQSTAAVAALVAEASSSKTLVVATNVDGVYEKDPRIYADVKLIPHLTTQDLRKILEGSQSVQAGTYELLDPLAIKIVERSKIRVIVMNYRKLNRIIDILKGEEVSSIIEPV
Broadly, the Km is the substrate concentration at which the rate is half of its maximum. Consider B1, for which the Km in series [1] is 81 µM; in series [2], 14 µM.

B2: IPK-Mjannaschii H60A: M. jannaschii IPK with His60 mutated to Ala (protein, UniProt Q60352 1-260, looked up, variant H60A)
Isopentenyl phosphate kinase: MLTILKLGGSILSDKNVPYSIKWDNLERIAMEIKNALDYYKNQNKEIKLILVHGGGAFGAPVAKKYLKIEDGKKIFINMEKGFWEIQRAMRRFNNIIIDTLQSYDIPAVSIQPSSFVVFGDKLIFDTSAIKEMLKRNLVPVIHGDIVIDDKNGYRIISGDDIVPYLANELKADLILYATDVDGVLIDNKPIKRIDKNNIYKILNYLSGSNSIDVTGGMKYKIDMIRKNKCRGFVFNGNKANNIYKALLGEVEGTEIDFSE
Consider B2, for which the “kinase activity (rate of IP turnover)” value in series [3] is recorded as “immeasurable; also recorded: no measurable activity”.

B3: IPK-Mjannaschii: isopentenyl phosphate kinase from Methanocaldococcus jannaschii, SEQ ID NO:1, wild type (protein, listed as Methanocaldococcus jannaschii)
chain: B2 Isopentenyl phosphate kinase with A60H, D223E
As a reminder, the kcat is the maximal rate divided by the concentration of active sites. As for B3, in series [3], the Km is 4.3 ± 0.6 µM and the “kcat” value was 1.46 ± 0.03 s⁻¹. For the same molecule, the Km in series [4] was found to be 198 µM. In addition, the “conversion (phosphorylation) of FP to FPP” value (shortened to “conversion (phosphorylation)”) in series [5] is reported as “significantly less phosphorylation”.

B4: I86A/I146A: IPK double mutant I86A and I146A (protein)
chain: B2 Isopentenyl phosphate kinase with A60H, I86A, I146A, D223E
In the case of B4, the “conversion (phosphorylation)” value in series [5] is “significant percentage of substrate”; in series [5] (listed as I146A/I146A) it was “significant percentage of FP”.

B5: I156V: IPK mutant, residue 156 Ile to Val (protein, listed as Methanocaldococcus jannaschii)
chain: B2 Isopentenyl phosphate kinase with A60H, I156V, D223E
In the case of B5, the “conversion (phosphorylation)” value in series [5] is on record as “decreased activity”.

B6: IPK-Mjannaschii H60N: M. jannaschii IPK with His60 mutated to Asn (protein, UniProt Q60352 1-260, looked up, variant H60N)
Isopentenyl phosphate kinase: B2 Isopentenyl phosphate kinase with A60N
Turning to B6, in series [3], the “kinase activity (rate of IP turnover)” value is recorded as “immeasurable; also recorded: no measurable activity”.

B7: I86A: IPK single mutant, residue 86 Ile to Ala (protein, listed as Methanocaldococcus jannaschii)
chain: B2 Isopentenyl phosphate kinase with A60H, I86A, D223E
As to B7, the “conversion (phosphorylation)” value in series [5] is “significant percentage of FP; also recorded: significant percentage of substrate”.

B8: I146V: IPK mutant, residue 146 Ile to Val (protein, listed as Methanocaldococcus jannaschii)
chain: B2 Isopentenyl phosphate kinase with A60H, I146V, D223E
As to B8, in series [5], the “conversion (phosphorylation)” value was “decreased activity”.

B9: F83A/I86A/I156A: IPK triple mutant F83A, I86A, I156A (protein)
chain: B2 Isopentenyl phosphate kinase with A60H, F83A, I86A, I156A, D223E
Take B9: the “conversion (phosphorylation)” value in series [5] is “greatest turnover”.

B10: I146A: IPK single mutant, residue 146 Ile to Ala (protein, listed as Methanocaldococcus jannaschii)
chain: B2 Isopentenyl phosphate kinase with A60H, I146A, D223E
For B10, the “conversion (phosphorylation)” value in series [5] was “significant percentage of FP; also recorded: significant percentage of substrate”.

B11: IPK-Mjannaschii H60Q: M. jannaschii IPK with His60 mutated to Gln (protein, UniProt Q60352 1-260, looked up, variant H60Q)
Isopentenyl phosphate kinase: B2 Isopentenyl phosphate kinase with A60Q
With B11, in series [3], the Km turned out to be 34.5 µM, the “kcat” value is 0.040 ± 0.002 s⁻¹ and the “kinase activity (rate of IP turnover)” value was “able to turn over a measurable amount of IP”. For the same molecule, in series [3] (versus wild type IPK), the “Km for IP, fold larger than wild type” value stood at 8 fold and the “kcat, fold slower than wild type” value is given as roughly 40 fold. The “kcat” value in series [3] (listed as H60Q) came out at 0.04 s⁻¹. Moreover, the Km in series [4] was determined as 559 µM.

B12: IPK-Mmaripaludis: isopentenyl phosphate kinase homolog from Methanococcus maripaludis, SEQ ID NO:8 (protein, listed as Methanococcus maripaludis)
chain: MFAILKLGGSILCDKNVPYSINWENLENIAIEIKEAIEYYSSKNEDFKLIIVHGGGSFGHPVAKKYLKNEKFEDMGKGYWEIQKAMRKFNNIVIEELQNFEPAVSIQASSFITFNHKSNLHFDTNAIEKMLDKGLIPVIHGDIVIDEKTDNFKIFSGDHALPFLSKKLNPDLSLHASDVDGVWDSEFKIIENINSKNIEDVLKSLKPSNKEDVTGGMHLKVMECYNLGIETIIFNGNKKRNIYNALLKNVKGTLIN
On to B12, for which the Km is 21.4 ± 4.2 µM in series [3], 16.1 µM in series [3] (setting [6]) and 96 ± 6 µM in series [4] (setting [6]). Also, in series [3], the “kcat” value was 13.1 ± 0.5 s⁻¹.
